Experiment [1] concerns the target human β2GPI (beta2-glycoprotein I) (human (endogenous in pooled normal human serum)) (UniProt P02749). The experiment in a line: ELISA.
In experiment [2] the target is mouse β2GPI (beta2-glycoprotein I) (mouse (endogenous in pooled BALB/c mouse serum)) (UniProt Q01339). The experiment in a line: ELISA.
Experiment [3] concerns the target domain V of human β2GPI (human) (UniProt P02749). The experiment in a line: ITC.

domain V of human β2GPI (human), sequence (P02749 263-345): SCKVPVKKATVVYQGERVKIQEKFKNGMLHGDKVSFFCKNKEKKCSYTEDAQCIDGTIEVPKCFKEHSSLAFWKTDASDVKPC
mouse β2GPI (beta2-glycoprotein I) (mouse (endogenous in pooled BALB/c mouse serum)), sequence (Q01339 20-345): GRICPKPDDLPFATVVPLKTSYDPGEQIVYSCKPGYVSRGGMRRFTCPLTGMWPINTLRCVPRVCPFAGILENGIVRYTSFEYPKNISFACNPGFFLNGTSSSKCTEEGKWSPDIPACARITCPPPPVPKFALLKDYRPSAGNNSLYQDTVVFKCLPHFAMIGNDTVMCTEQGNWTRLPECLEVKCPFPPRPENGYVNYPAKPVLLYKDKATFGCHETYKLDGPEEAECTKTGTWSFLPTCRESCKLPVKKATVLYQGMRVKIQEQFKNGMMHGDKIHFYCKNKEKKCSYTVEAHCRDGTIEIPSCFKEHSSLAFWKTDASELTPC
human β2GPI (beta2-glycoprotein I) (human (endogenous in pooled normal human serum)), sequence (P02749 20-345): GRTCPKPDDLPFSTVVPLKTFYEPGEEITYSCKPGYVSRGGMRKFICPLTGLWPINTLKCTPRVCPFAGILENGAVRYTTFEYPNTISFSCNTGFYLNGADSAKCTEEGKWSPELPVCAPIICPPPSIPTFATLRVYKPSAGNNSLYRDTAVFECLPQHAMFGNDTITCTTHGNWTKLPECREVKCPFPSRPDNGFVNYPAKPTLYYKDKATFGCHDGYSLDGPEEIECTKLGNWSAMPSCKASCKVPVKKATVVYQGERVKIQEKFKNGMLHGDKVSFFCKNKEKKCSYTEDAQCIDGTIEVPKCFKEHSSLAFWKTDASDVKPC

As for “Asn36/Asp mutant of mouse A1-A1 (from UniProt Q924X6 40-75; Q924X6 40-75)”, the IC50 in experiment [1] was found to be 2500 nM; in experiment [2], 2800 nM.

With “human A1, first ligand-binding module of ApoE receptor 2 (ApoER2) (domain or fragment)”, in experiment [3], the Kd worked out at 20 µM, the dH is -6.3 kcal/mol and the stoichiometry N is 1.06.

Take human A1-A1: the IC50 in experiment [1] came to 5000 nM; in experiment [2] it was 3100 nM.

In experiment [3], “mouse A1, first ligand-binding module of ApoE receptor 2 (ApoER2) (domain or fragment)” returned a Kd of 26 µM, a dH of -5.5 kcal/mol and a stoichiometry N of 1.06.

Take mouse A1-A1: the IC50 in experiment [1] worked out at 2700 nM; in experiment [2], 3000 nM.

These data come from article PMC4351136.
